B1: GpH7-A5/GpH7-B3 variant A327_03V/GpL16-k0 (antibody, human IgG1, kappa)
heavy 1: not shown
heavy 2: not shown
light: DIVMTQSPLSLPVTPGEPASISCQASESLVHSNRNTYLHWYLQKPGQSPQLLIYKVSNRFSGVPDRFSGSGSGTDFTLKISRVEAEDVGVYYCSQNTHVPPTFGQGTKVEIERTVAAPSVFIFPPSDEQLKSGTASVVCLLNNFYPREAKVQWKVDNALQSGNSQESVTEQDSKDSTYSLSSTLTLSKADYEKHKVYACEVTHQGLSSPVTKSFNRGEC
notes: Heterodimerized anti-glypican-3 IgG1; mutation in one H chain only; also called He Ab
B2: GpH7-A5/GpH7-B3 variant I332_10E/GpL16-k0 (antibody, human IgG1, kappa)
heavy 1: not shown
heavy 2: not shown
light: B1 light
notes: as for B1
B3: GpH7-A5/GpH7-B3 variant L328_04F/GpL16-k0 (antibody, human IgG1, kappa)
heavy 1: not shown
heavy 2: not shown
light: B1 light
notes: as for B1
B4: GpH7-A5/GpH7-B3 variant A330_05P/GpL16-k0 (antibody, human IgG1, kappa)
heavy 1: not shown
heavy 2: not shown
light: B1 light
notes: as for B1
B5: GpH7-A5/GpH7-B3 variant A327_08L/GpL16-k0 (antibody, human IgG1, kappa)
heavy 1: not shown
heavy 2: not shown
light: B1 light
notes: as for B1
B6: GpH7-A5/GpH7-B3 variant L328_06M/GpL16-k0 (antibody, human IgG1, kappa)
heavy 1: not shown
heavy 2: not shown
light: B1 light
notes: as for B1
B7: GpH7-A5/GpH7-B3 variant A327_14T/GpL16-k0 (antibody, human IgG1, kappa)
heavy 1: not shown
heavy 2: not shown
light: B1 light
notes: as for B1
B8: GpH7-A5/GpH7-B3 variant A327_07I/GpL16-k0 (antibody, human IgG1, kappa)
heavy 1: not shown
heavy 2: not shown
light: B1 light
notes: as for B1
B9: GpH7-A5/GpH7-B3 variant A327_10E/GpL16-k0 (antibody, human IgG1, kappa)
heavy 1: not shown
heavy 2: not shown
light: B1 light
notes: as for B1
B10: GpH7-A5/GpH7-B3 variant A327_18N/GpL16-k0 (antibody, human IgG1, kappa)
heavy 1: not shown
heavy 2: not shown
light: B1 light
notes: as for B1
B11: GpH7-A5/GpH7-B3 variant L328_05P/GpL16-k0 (antibody, human IgG1, kappa)
heavy 1: not shown
heavy 2: not shown
light: B1 light
notes: as for B1
B12: GpH7-A5/GpH7-B3 variant A327_09D/GpL16-k0 (antibody, human IgG1, kappa)
heavy 1: not shown
heavy 2: not shown
light: B1 light
notes: as for B1
B13: GpH7-A5/GpH7-B3 variant L328_03V/GpL16-k0 (antibody, human IgG1, kappa)
heavy 1: not shown
heavy 2: not shown
light: B1 light
notes: as for B1
B14: GpH7-A5/GpH7-B3 variant L328_07I/GpL16-k0 (antibody, human IgG1, kappa)
heavy 1: not shown
heavy 2: not shown
light: B1 light
notes: as for B1

The first assay concerns the target T1, FcγRIIb, extracellular domain with C-terminal His tag (human, UniProt P31994 43-217).
T1 construct: extracellular domain; also called FcgRIIb; 2b; not shown: His tag at the C terminus
T1 sequence (looked up): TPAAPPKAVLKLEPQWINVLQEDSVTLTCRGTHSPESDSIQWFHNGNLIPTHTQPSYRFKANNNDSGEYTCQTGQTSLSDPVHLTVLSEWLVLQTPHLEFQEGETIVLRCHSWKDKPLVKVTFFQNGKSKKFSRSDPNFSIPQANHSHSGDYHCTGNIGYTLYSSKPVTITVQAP
The assay can be described thus: SPR (Biacore), relative binding vs GpH7-A5/GpH7-B3/GpL16-k0.
Consider B1, for which the He/Con_2b is 94.7 % of HeCon Ab (=100).

As for B2, the He/Con_2b was 142 % of HeCon Ab (=100).

B3: the He/Con_2b was 219 % of HeCon Ab (=100).

B4: the He/Con_2b was 137 % of HeCon Ab (=100).

Consider B5, for which the He/Con_2b was 63.1 % of HeCon Ab (=100).

Turning to B6, the He/Con_2b is 142 % of HeCon Ab (=100).

Take B7: the He/Con_2b was 89.4 % of HeCon Ab (=100).

For B8, the He/Con_2b is 127 % of HeCon Ab (=100).

Take B9: the He/Con_2b is 140 % of HeCon Ab (=100).

As to B10, the He/Con_2b is 113 % of HeCon Ab (=100).

Turning to B11, the He/Con_2b was 65.1 % of HeCon Ab (=100).

In the case of B12, the He/Con_2b is 172 % of HeCon Ab (=100).

For B13, the He/Con_2b was 126 % of HeCon Ab (=100).

With B14, the He/Con_2b is 160 % of HeCon Ab (=100).

A further assay concerns the target T2, FcγRIIa H (FcγRIIa, allotype with His at position 131), extracellular domain with C-terminal His tag (human, UniProt P12318 34-217).
T2 construct: extracellular domain; also called FcgRIIa H; 2aH; not shown: His tag at the C terminus
T2 sequence (looked up): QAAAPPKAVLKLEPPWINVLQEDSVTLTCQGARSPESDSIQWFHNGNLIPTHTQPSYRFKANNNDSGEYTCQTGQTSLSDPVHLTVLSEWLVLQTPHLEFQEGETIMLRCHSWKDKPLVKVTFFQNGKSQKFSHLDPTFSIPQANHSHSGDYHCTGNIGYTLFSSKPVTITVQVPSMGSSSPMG
The assay is described as above.
Take B1: the He/Con_2aH is 51 % of HeCon Ab (=100).

Turning to B2, the He/Con_2aH is 108 % of HeCon Ab (=100).

As to B3, the He/Con_2aH was 71.7 % of HeCon Ab (=100).

On to B4, for which the He/Con_2aH is 85.7 % of HeCon Ab (=100).

In the case of B5, the He/Con_2aH is 46.9 % of HeCon Ab (=100).

For B6, the He/Con_2aH is 104 % of HeCon Ab (=100).

As to B7, the He/Con_2aH was 45.6 % of HeCon Ab (=100).

B8: the He/Con_2aH was 58.4 % of HeCon Ab (=100).

For B9, the He/Con_2aH was 91.3 % of HeCon Ab (=100).

Regarding B10, the He/Con_2aH was 66.8 % of HeCon Ab (=100).

Consider B11, for which the He/Con_2aH was 45.4 % of HeCon Ab (=100).

B12: the He/Con_2aH was 105 % of HeCon Ab (=100).

For the molecule B13, the He/Con_2aH was 97.8 % of HeCon Ab (=100).

For B14, the He/Con_2aH is 93.9 % of HeCon Ab (=100).

For the next assay, the target named is T2, FcγRIIa H (FcγRIIa, allotype with His …). The assay can be described thus: SPR (Biacore); He/Con_2aH divided by He/Con_2b (FcγRIIb).
On to B1, for which the “He_2aH/2b (IIaH/IIb)” value stood at 0.54 ratio.

Regarding B2, the “He_2aH/2b (IIaH/IIb)” value came to 0.76 ratio.

With B3, the “He_2aH/2b (IIaH/IIb)” value is 0.33 ratio.

B4: the “He_2aH/2b (IIaH/IIb)” value was 0.63 ratio.

For the molecule B5, the “He_2aH/2b (IIaH/IIb)” value is 0.74 ratio.

B6: the “He_2aH/2b (IIaH/IIb)” value is 0.73 ratio.

Regarding B7, the “He_2aH/2b (IIaH/IIb)” value stood at 0.51 ratio.

As for B8, the “He_2aH/2b (IIaH/IIb)” value turned out to be 0.46 ratio.

For B9, the “He_2aH/2b (IIaH/IIb)” value is 0.65 ratio.

Regarding B10, the “He_2aH/2b (IIaH/IIb)” value was determined as 0.59 ratio.

In the case of B11, the “He_2aH/2b (IIaH/IIb)” value is 0.7 ratio.

Turning to B12, the “He_2aH/2b (IIaH/IIb)” value was 0.61 ratio.

For B13, the “He_2aH/2b (IIaH/IIb)” value worked out at 0.78 ratio.

Take B14: the “He_2aH/2b (IIaH/IIb)” value worked out at 0.59 ratio.

These data come from patent US20150344570A1 (published 2015).
